These results are taken from patent US20250340659A1 (PETMEDIX, published 2025).

For assay [1], the target named is T1, canine OX40L, full length membrane form, expressed on HEK293 cells (canine).
T1 chain: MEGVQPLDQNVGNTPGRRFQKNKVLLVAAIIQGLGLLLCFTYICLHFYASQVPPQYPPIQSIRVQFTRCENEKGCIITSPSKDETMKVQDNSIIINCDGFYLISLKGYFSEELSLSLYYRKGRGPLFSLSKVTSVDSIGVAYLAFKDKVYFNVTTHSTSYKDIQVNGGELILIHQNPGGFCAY
The assay is described as follows: cell-based or functional assay.

Assay [2] addresses T1, canine OX40L, full length membrane …. The assay is described as follows: flow cytometry, OX40L HEK minus WT HEK. A digest of the protocol:
(§1)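 CHO supernatants at 1, 5 or 10 μg/ml in PBS/3% FBS incubated 30′ on ice with cells surface-expressing canine OX40L. Bound antibody detected with fluorescent anti-canine Fc secondary (1:1000, 30 min, dark) and measured by flow cytometry, with parental WT HEK signal subtracted where stated.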

Assay [3] deals with T2, recombinant canine OX40L ECD-TNCc-HIS protein (canine).
T2 construct: also called Trimeric OX40L probe (HIS tag); trimeric canine OX40L
T2 chain: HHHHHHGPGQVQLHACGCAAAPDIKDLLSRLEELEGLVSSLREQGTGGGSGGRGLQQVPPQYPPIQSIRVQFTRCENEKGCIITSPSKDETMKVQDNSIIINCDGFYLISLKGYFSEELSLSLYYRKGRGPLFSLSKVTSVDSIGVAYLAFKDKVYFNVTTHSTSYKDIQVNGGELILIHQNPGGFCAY
Nature of the assay: SPR Koff (kd1). The method in brief: (§2)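 Purified antigen amine-coupled at low density to a CM5 chip; candidate antibodies injected as analyte over a concentration range. Kinetic curves fitted with a bivalent analyte model to give functional affinity and dissociation rates.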

Assay [4] concerns the target T1, canine OX40L, full length membrane …. Nature of the assay: flow cytometry. A digest of the protocol:
as §1
(In flow cytometry, cells or beads pass a laser one at a time.)

In assay [5] the target is T2, recombinant canine OX40L ECD-TNCc-HIS …. Nature of the assay: SPR KD1, bivalent analyte model. The method in brief:
as §2

The target is the same in assay [6]. The assay is described as follows: SPR Koff (kd2). The method in brief:
as §2

B1: PMX055 (antibody)
heavy: EVQLEESGGDLVKPEGSLRLSCVVSGFTLSTFGMSWVRQAPGKGLQWVAYISSDGRSTSYTDAVKGRFTISRDNAKNTLYLQMNSLRTDDTAVYYCVQLGRGFGIDYWGHGTSLFVSSASTTAPSVFPLAPSCGSTSGSTVALACLVSGYFPEPVTVSWNSGSLTSGVHTFPSVLQSSGLYSLSSMVTVPSSRWPSETFTCNVAHPASKTKVDKPVPKRENGRVPRPPDCPKCPAPESLGGPSVFIFPPKPKDTLLIARTPEVTCVVVDLGREDPEVQISWFVDGKQMQTAKTQPREEQFNGTYRVVSVLPIGHQDWLKGKQFTCKVNHIGLPSPIERTISKARGQAHQPSVYVLPPSREELSKNTVSLTCLIKDFFPPDIDVEWQSNGQQEPESKYRTTPPQLDEDGSYFLYSKLSVDKSRWQRGDTFICAVMHEALHNHYTQKSLSHSPGK
VL: SYVLTQLPSKNVTLRQPAHIPCGGDNIGSKSVHWYQQKLGQAPVLIIYYDTSRPTGIPERFSGANSGNTATLTISGALAEDEADYYCQVWDSSAAVFGGGTHLTVL
notes: also called PMX55
In general, koff refers to the first-order rate constant of dissociation. Consider B1, for which, in assay [1], the “% Signal Inhibition Average” value turned out to be 52.8%, the “% Signal Inhibition Rep1” value turned out to be 48.3%, the “% Signal Inhibition Rep2” value was 57.7% and the “% Signal Inhibition Rep3” value was 52.3%. This molecule returned a GEO mean difference in assay [2] of 3.23e+06. Besides, the off-rate (koff) in assay [3] stood at 0.00366 s⁻¹. Besides, the “GEO mean OX40L expressing HEK” value in assay [4] stood at 3.26e+06. Also, the Kd in assay [5] was determined as 5.43 nM. Moreover, the koff in assay [6] was found to be 0.401 s⁻¹.

B2: PMX059 (antibody, V domains shown)
VH: EVHLVESGGDLVKPEGSLRLSCVVSGFTFSNYVMNWVRQAPGKGLQWVAFISGDGRSTTYTDAVKSRFTISRDNAKNTLYLQMSSLRTEDTAIYFCAKEKYSSGWSFEYWGQGTLVTVSS
VL: SYVLTQLPSKNVTLKQPAHITCGGDNIGSKSVHWYQQKLGQAPVLIIYYDSSRPTGIPERFSGANSGNTATLTISGALAEDEADYYCQVWDSSASVFGGGTHLTVL
notes: also called PMX59
In the case of B2, in assay [1], the “% Signal Inhibition Average” value turned out to be 57.8%, the “% Signal Inhibition Rep1” value stood at 51.1%, the “% Signal Inhibition Rep2” value stood at 64.3% and the “% Signal Inhibition Rep3” value was determined as 58%. This molecule also returned a GEO mean difference in assay [2] of 3.11e+06. Moreover, the koff in assay [3] was 0.00737 s⁻¹. Besides, the “GEO mean OX40L expressing HEK” value in assay [4] was 3.14e+06. Besides, in assay [5], the Kd was 10 nM. For the same molecule, the koff in assay [6] is 0.00737 s⁻¹.

B3: PMX057 (antibody, V domains shown)
VH: EVQLVESGGDLVKPEGSLRLSCVVSGFTFNNYGMSWVRQAPGKGLQWVAYISIDGRSTSYTDAVKGRFTISRDNAKNTLYLHINSLRTEDTAVYYCTKLGRGFTFGYWGQGTLVTVSS
VL: SYVLTQLPSKNVTLKQPAHITCGGDNIGSKSVHWYQQKLGQAPALIIYYDSSRPTGIPERFSGANSGNTATLTISGALAEDEADYYCQVWDSSVSVFGGGTHLTVL
notes: also called PMX57
Regarding B3, in assay [1], the “% Signal Inhibition Average” value came to 66%, the “% Signal Inhibition Rep1” value was 52.1%, the “% Signal Inhibition Rep2” value is 72% and the “% Signal Inhibition Rep3” value is 73.9%. The molecule also displayed a GEO mean difference in assay [2] of 3.29e+06. Also, the koff in assay [3] stood at 0.00472 s⁻¹. Further, in assay [4], the “GEO mean OX40L expressing HEK” value was 3.32e+06. In addition, the Kd in assay [5] turned out to be 1.29 nM. The off-rate constant (koff) in assay [6] amounted to 0.22 s⁻¹.

B4: PMX058 (antibody, V domains shown)
VH: EVQLVESGGDLVKPEGSLRLSCVVSDFTFGSYGMSWVRQAPGKGLQWVAYISSDGRSTSYTDAVKGRFTISRDNAKNTLHLQMNSLRTEDTAVYYCAKLGRGFAFGYWGQGTLVTVSS
VL: SYVLTQLPSKNVTLKQPAHITCGGDNIGSKSVHWYQQKLGQAPVLIIYYDSNRPTGIPERFSGANSGNTATLTISGALAEDEADYYCQVWDSSASVFGGGTHLTVL
notes: also called PMX58
As to B4, in assay [1], the “% Signal Inhibition Average” value was 29.1%, the “% Signal Inhibition Rep1” value is 12.4%, the “% Signal Inhibition Rep2” value amounted to 35.3% and the “% Signal Inhibition Rep3” value is 39.5%. This molecule also came in with a GEO mean difference in assay [2] of 3.31e+06. For the same molecule, in assay [3], the koff came to 0.0144 s⁻¹. Also, the “GEO mean OX40L expressing HEK” value in assay [4] turned out to be 3.34e+06. Moreover, the Kd in assay [5] worked out at 8.46 nM. The off-rate (koff) in assay [6] was 0.323 s⁻¹.

B5: PMX056 (antibody)
heavy: EVQLVESGGDLVKPEGSLRLSCVVSGFTLSSYGMSWVRQAPGRGLQWVAYISSDGRSTSYTDAVKGRFTISRDNAKNTLYLQMNSLRSEDTAVYYCVQLGRGFGMDYWGHGTSLFVSSASTTAPSVFPLAPSCGSTSGSTVALACLVSGYFPEPVTVSWNSGSLTSGVHTFPSVLQSSGLYSLSSMVTVPSSRWPSETFTCNVAHPASKTKVDKPVPKRENGRVPRPPDCPKCPAPESLGGPSVFIFPPKPKDTLLIARTPEVTCVVVDLGREDPEVQISWFVDGKQMQTAKTQPREEQFNGTYRVVSVLPIGHQDWLKGKQFTCKVNHIGLPSPIERTISKARGQAHQPSVYVLPPSREELSKNTVSLTCLIKDFFPPDIDVEWQSNGQQEPESKYRTTPPQLDEDGSYFLYSKLSVDKSRWQRGDTFICAVMHEALHNHYTQKSLSHSPGK
VL: SYVLTQLPSKNVTLKQPAHITCGGDNIGSKSVHWYQQKLGQAPVVIIYYDSTRPTGIPERFSGANSGNTATLTISGALAEDEADYYCQVWDSSAAVFGGGTHLTVL
notes: also called PMX56
Take B5: in assay [1], the “% Signal Inhibition Average” value stood at 44.3%, the “% Signal Inhibition Rep1” value came out at 27.3%, the “% Signal Inhibition Rep2” value is 57% and the “% Signal Inhibition Rep3” value was determined as 48.5%. This molecule came in with a GEO mean difference in assay [2] of 3.13e+06. Also, the off-rate (koff) in assay [3] is 0.0148 s⁻¹. Moreover, the “GEO mean OX40L expressing HEK” value in assay [4] came out at 3.16e+06. Also, the Kd in assay [5] was 61 nM. The off-rate constant (koff) in assay [6] worked out at 0.000624 s⁻¹.

B6: PMX054 (antibody, V domains shown)
VH: EVHLVESGGDLVKPEGSLRLSCVVSGFTFSSYDMSWVRQAPGKGLQWVAYISSDGRSTGYTDAVKGRFTISRDNAKKTLYLQMNSLRSEDTAVYYCAKETPRWGFDYWGQGTLVTVSS
VL: SYVLTQLPSVSVTLRQTARITCGGASIGSKNVYWHQQKLGQAPLLIIYDDSSRPSGIPERFSGANSGNTATLTISGALAEDEADYYCQVWDSSTSVFGGGTHLTVL
notes: also called PMX54
On to B6, for which, in assay [1], the “% Signal Inhibition Average” value amounted to 32%, the “% Signal Inhibition Rep1” value is 21%, the “% Signal Inhibition Rep2” value was found to be 32.8% and the “% Signal Inhibition Rep3” value worked out at 42%. In addition, the GEO mean difference in assay [2] came out at 3.24e+06. The off-rate constant (koff) in assay [3] is 0.0345 s⁻¹. Also, in assay [4], the “GEO mean OX40L expressing HEK” value is 3.27e+06. Besides, the Kd in assay [5] was 5.76 nM. In assay [6], the koff worked out at 0.0848 s⁻¹.

B7: PMX036 (antibody, V domains shown)
VH: EVQLVESGGDLVKPGGSLRLSCVASGFTFSSYHMSWVRQAPGKGLQWVAYITSGGRTTSYADAVKGRFTISRDNAKNTLYLQMNSLRAEDTAVYYCASDLVLVLGGADYWGQGTLVTVSS
VL: SYELTQPPSVNVTLRETAHITCGGDSIGRKYVQWIQQNPGQAPVVIIYKDTNRPTGIPERFSGANSGNTATLTISGALAEDEADYYCQVGDSGTKAVFGGGTHLTVL
notes: also called PMX36
For B7, in assay [1], the “% Signal Inhibition Average” value was found to be 77.4%, the “% Signal Inhibition Rep1” value was 87.6%, the “% Signal Inhibition Rep2” value amounted to 79.1% and the “% Signal Inhibition Rep3” value is 65.5%. This molecule also came in with a GEO mean difference in assay [2] of 1.28e+06. Moreover, in assay [3], the dissociation rate constant (koff) came out at 0.00166 s⁻¹. Further, in assay [4], the “GEO mean OX40L expressing HEK” value was 1.31e+06. Also, the Kd in assay [5] came out at 21.6 nM. Further, the off-rate (koff) in assay [6] is 0.0522 s⁻¹.
